# Data: publication PMC5955193, “Streptococcus gallolyticus subsp. gallolyticus endocarditis isolate interferes with coagulation and activates the contact system” (Virulence, 2017)
# B1: Pil1 collagen-binding adhesin Gallo2179 of Streptococcus gallolyticus subsp. gallolyticus UCN34, recombinant (natural protein)
# chain: MFYYLGEGIINFRKLFIALVLIIFSFFTVSEVRAADVSNRVTSLTVATTELQDGGRTTVRVEFNDRAGKIHSGDTIEVTWSISNSIYLNGYTKSIPLTIQGVNVGTLEVTEHNAIFKFNSNIETMENVSGWGEFEVIGRNVTNTSSENTGTAVVQVGGYSQNISITKPQSGTGTSSFYYKTGDIQPSDTNRVRWFLLVNNNKEYVESDVTIEDDIQSGQTLDMSSFDITISGYQNKRFVGESALEEFKRSCPNSSIEITQKSEGGHISIRLSRDDVILNTISIHYKTKILDFDQEKFANNSNITYKPLYKDWVTNKESNYEVVNVNANGGVDGSRYTSVTVNKVWNDKDNQDGKRSDKVVIQLLADGQEISGKQLELSEENGWSGTFEKLNKYHSDNTLITYTVKEVTDLPDYQTTVSENSKNNYTITNTHIPEVIDLSGKKIWDDNNNQDGIRPETITVHLLANGVDTGQVKTVSKSDNWEYQFKDLPKYQNGEKVVYTVSEDVVVGYEMSVSGMNLTNTHTPEVTNILISKYWDDNDDKLKKRPESIQITLHANGKEYQTVTLTASNQWQYEFKDLPKYKDGEKIAYTVTEADVPNYQLISIEEDESGNWKITNKVEESYLFPNTGGKGISGYYTVGIVLLLSIGLLFLKKFIGDY
# modifications: fluorescent label NT-647 covalently attached by NHS coupling (in the MST only)
# What was measured:
# [1] = biological target: T1, human coagulation factor XII (human); experiment: SPR; Biacore 3000, CM3 chip, Gallo2179 immobilised (1900 RUs) by amine coupling; FXII as analyte at 12.5 - 200 nM; 25°C, PBS running buffer; 1:1 Langmuir global fit; conditions: both partners purified
# T1 construct: coagulation factor XII (serine protease zymogen), human; also called FXII; contact factor XII; source: bought: Haemochrom Diagnostica, Germany
# [2] = biological target: T1, human coagulation factor XII; experiment: MST; NT-647 labeled Gallo2179 kept constant (estimated 50-300 nM); 16-step serial dilution of non-labeled FXII (6.25 μM - 0.19 nM) or HK (4.15 μM - 0.12 nM); Monolith NT.115; three independent measurements; conditions: both partners purified
binder,measurement,setting,value
B1,Kd,[1],14 nM
same,Kd,[2],12.9 nM
